Measured values taken from patent publication US20210238260.

Factor X, P00742, sequence (P00742 whole entry, looked up): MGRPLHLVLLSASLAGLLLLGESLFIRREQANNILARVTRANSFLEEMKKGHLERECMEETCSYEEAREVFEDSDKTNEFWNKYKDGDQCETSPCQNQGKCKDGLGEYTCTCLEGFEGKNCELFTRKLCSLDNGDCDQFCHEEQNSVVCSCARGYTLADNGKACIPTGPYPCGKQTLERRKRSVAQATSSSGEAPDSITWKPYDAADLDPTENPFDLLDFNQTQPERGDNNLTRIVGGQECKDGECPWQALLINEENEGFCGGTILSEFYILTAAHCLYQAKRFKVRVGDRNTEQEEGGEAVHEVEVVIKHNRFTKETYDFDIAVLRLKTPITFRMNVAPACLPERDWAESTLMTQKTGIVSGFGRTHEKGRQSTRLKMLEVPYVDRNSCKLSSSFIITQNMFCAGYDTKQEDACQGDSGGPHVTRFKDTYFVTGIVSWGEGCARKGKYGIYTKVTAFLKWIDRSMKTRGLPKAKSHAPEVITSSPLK
Factor X (FX), P00742, sequence (P00742 whole entry, looked up): as above

| Protein | KM (Factor X, P00742) | % of WT kcat/KM (Factor X (FX), P00742) | kcat (s^-1) of FX activation by FIXa variant in the Xase complex (FVIIIa, PC/PS vesicles, Ca2+), fluorogenic FXa read-out (Factor X (FX), P00742) | kcat/KM for FX activation (Xase: FVIIIa, PC/PS vesicles, Ca2+) (Factor X (FX), P00742) | proteolytic cleavage and activation of purified factor X (Factor X (FX), P00742) |
| --- | --- | --- | --- | --- | --- |
| FIXa-K247N/N249S/T343R/R403E/E410N (protein) chain 1: YNSGKLEEFVQGNLERECMEEKCSFEEAREVFENTERTTEFWKQYVDGDQCESNPCLNGGSCKDDINSYECWCPFGFEGKNCELDVTCNIKNGRCEQFCKNSADNKVVCSCTEGYRLAENQKSCEPAVPFPCGRVSVSQTSKLTR chain 2: VVGGEDAKPGQFPWQVVLNGKVDAFCGGSIVNEKWIVTAAHCVETGVKITVVAGEHNIEETEHTEQNRSVIRIIPHHNYNAAINKYNHDIALLELDEPLVLNSYVTPICIADKEYTNIFLKFGSGYVSGWGRVFHKGRSALVLQYLRVPLVDRATCLRSTKFRIYNNMFCAGFHEGGRDSCQGDSGGPHVTEVEGTSFLTGIISWGEECAMKGKYGIYTKVSEYVNWIKNKTKLT | 60 nM | 285% | 8 s⁻¹ | 1.3e+08 M⁻¹ s⁻¹ |  |
| FIXa-R318Y/R338E/T343R (protein) chain 1: YNSGKLEEFVQGNLERECMEEKCSFEEAREVFENTERTTEFWKQYVDGDQCESNPCLNGGSCKDDINSYECWCPFGFEGKNCELDVTCNIKNGRCEQFCKNSADNKVVCSCTEGYRLAENQKSCEPAVPFPCGRVSVSQTSKLTR chain 2: VVGGEDAKPGQFPWQVVLNGKVDAFCGGSIVNEKWIVTAAHCVETGVKITVVAGEHNIEETEHTEQKRNVIRIIPHHNYNAAINKYNHDIALLELDEPLVLNSYVTPICIADKEYTNIFLKFGSGYVSGWGRVFHKGYSALVLQYLRVPLVDRATCLESTKFRIYNNMFCAGFHEGGRDSCQGDSGGPHVTEVEGTSFLTGIISWGEECAMKGKYGIYTKVSRYVNWIKEKTKLT | 30 nM | 324% | 4.5 s⁻¹ | 1.5e+08 M⁻¹ s⁻¹ | catalyzes the proteolytic cleavage and activation of purified factor X to the same extent in the presence of (1) poly-L-lysine phospholipid/calcium, and (3) factor VIIIa/phospholipid/calcium |
| FIXa-Y155F/R318Y/T343R/R403E (protein) chain 1: YNSGKLEEFVQGNLERECMEEKCSFEEAREVFENTERTTEFWKQYVDGDQCESNPCLNGGSCKDDINSYECWCPFGFEGKNCELDVTCNIKNGRCEQFCKNSADNKVVCSCTEGYRLAENQKSCEPAVPFPCGRVSVSQTSKLTR chain 2: VVGGEDAKPGQFPWQVVLNGKVDAFCGGSIVNEKWIVTAAHCVETGVKITVVAGEHNIEETEHTEQKRNVIRIIPHHNYNAAINKYNHDIALLELDEPLVLNSYVTPICIADKEYTNIFLKFGSGYVSGWGRVFHKGYSALVLQYLRVPLVDRATCLRSTKFRIYNNMFCAGFHEGGRDSCQGDSGGPHVTEVEGTSFLTGIISWGEECAMKGKYGIYTKVSEYVNWIKEKTKLT | 72.7 nM | 154% | 5 s⁻¹ | 7.1e+07 M⁻¹ s⁻¹ |  |
| FIXa-Y155F/R318Y/R338E/T343R (protein) chain 1: YNSGKLEEFVQGNLERECMEEKCSFEEAREVFENTERTTEFWKQYVDGDQCESNPCLNGGSCKDDINSYECWCPFGFEGKNCELDVTCNIKNGRCEQFCKNSADNKVVCSCTEGYRLAENQKSCEPAVPFPCGRVSVSQTSKLTR chain 2: VVGGEDAKPGQFPWQVVLNGKVDAFCGGSIVNEKWIVTAAHCVETGVKITVVAGEHNIEETEHTEQKRNVIRIIPHHNYNAAINKYNHDIALLELDEPLVLNSYVTPICIADKEYTNIFLKFGSGYVSGWGRVFHKGYSALVLQYLRVPLVDRATCLESTKFRIYNNMFCAGFHEGGRDSCQGDSGGPHVTEVEGTSFLTGIISWGEECAMKGKYGIYTKVSRYVNWIKEKTKLT | 24.2 nM | 771% | 7.9 s⁻¹ | 3.6e+08 M⁻¹ s⁻¹ |  |
